Experimental data: the DeepSol protein solubility set

Assay: soluble on expression in E. coli; label from the status in PepcDB or PDB records

Sequence | soluble on expression in E. coli
MGSSHHHHHHSSGRENLYFQGSPVEKYNFKAEVNKVMDIIVNSLYTDKDVFLRELISNASDACDKKRIILENNKLIKDAEVVTNEEIKNETEKEKTENVNESTDKKENVEEEKNDIKKLIIKIKPDKEKKTLTITDNGIGMDKSELINNLGTIAQSGTAKFLKQIEEGKADSNLIGQFGVGFYSSFLVSNRVEVYTKKEDQIYRWSSDLKGSFSVNEIKKYDQEYDDIKGSGTKIILHLKEECDEYLEDYKLKELIKKYSEFIKFPIEIWSE | soluble
MGSVNGAEALKALYALQEKDLEIDRLRAEAESPPEELVALQGQVEALEERLTNLLERRAELEREYNRHSLDIEDLSAKEKQAEEEQKRAQSAREQTQYENRIQQIKDRIRELLELSTPIMEAMENLEAEIAQVEEELAALRPRLQELLEANRARVAELEAAIAAKVEERTTMAAAIPAQILKEYEAIRRARRGTGVARMAAQGQVYRCEGCNVVLPTHVAQKVVRGQVVRCPSCGRLLWKGE | soluble
MGTFTATYFLKNAFWDKRGLWTATLAVAYFARCWESAGYNKAEMMKGHSKMYADRLKQLPAHTDAWKY | not soluble
MGTKLPRKLEQKMQIVGEQIKLARLRRNLSIAQIAERATCSPLTVGRIEKGSPTVAIGIYARVLYALQLEDDLLHLAGADELGRRLQDLSLINRRRASKKG | not soluble
MGTTLEVLRTGPLALVEDLGRPGLAHMGVTRSGAADRRSHTLANRLVANPGESATIEVTFGGFSARVCGGDVAIAVTGADTDPAVNGIPFGTNSIHHVHDGQVISLGAPHSGLRSYLAVRGGIDVTPVLGSRSYDVMSAIGPSPLRPGDVLPVGEHTDEFPELDQAPVAAIAEDVVELQVVPGPRDDWFVDPDILVRTNWLVTNRSDRVGMRLVGMPLEYRNPDRQLPSEGATRGAIQVPPNGFPVILGPDHPVTGGYPVIGVVTEEDIDKLGQVRPGQTVRLHWAYPRRPFETLESGKETAAAKFERQHMDSSTSAA | soluble
MGVCFSAIRVTGASSSRRSSQTKSKAAPTPIDTKASTKRRTGSIPCGKRTDFGYSKDFHDHYTIGKLLGHGQFGYTYVAIHRPNGDRVAVKRLDKSKMVLPIAVEDVKREVQILIALSGHENVVQFHNAFEDDDYVYIVMELCEGGELLDRILSKKGNRYSEKDAAVVVRQMLKVAGECHLHGLVHRDMKPENFLFKSAQLDSPLKATDFGLSDFIKPGKRFHDIVGSAYYVAPEVLKRRSGPESDVWSIGVITYILLCGRRPFWDRTEDGIFKEVLRNKPDFSRKPWATISDSAKDFVKKLLVKDPRARLTAAQALSHAWVREGGNATDIPVDISVLNNLRQFVRYSRLKQFALRALASTLDEAEISDLRDQFDAIDVDKNGVISLEEMRQALAKDLPWKLKDSRVAEILEAIDSNTDGLVDFTEFVAAALHVHQLEEHDSEKWQLRSRAAFEKFDLDKDGYITPEELRMHTGLRGSIDPLLDEADIDRDGKISLHEFRRLLRTASISSQRAPSPAGHRNLR | soluble
MGVLTTFISQKALVGGYDNTIEPGVVILSGATITCNVSIGQGTFINKSTVISHDVRIGRYCEVSPGAKVLGRAIIGDRTEIGANAVILPDVIVGADCKIGAGAVVTRNIDSHTTVAGVPARSITKSSNNAFKLKSKIRNLLYHIRIADFRKLREYNHYVFGLEHHHHHH | not soluble
MGYCVLHLEKAKGADSGMSAHIERTIVPKNIDPTRTHLNRELIMFPDGVCNRTLAIRHRLDTAGLKRKIGKNQVQAIRIVLSGTHEDMARMEDEGRLGEWCDDSVAWLRETYGAENLVSAVLHMDEETPHIHATVVPIVQGERRKQKKEENARRRYRTKAPAPRLCADEVMSRASLIRYQDTYAEHMEKYGLKRGVRGSLAKHLSTHEYYRSLITQGEDIQANIATLLSRETEASRIIAEAEQAKQELARIKAETKTVELKNSAARTATAALNGIGSLLGSNKMSRLESENRQLHGEVAELKESIEQMRTDMQKMRDSYTAEQLRVSEQHQREIGNFRRIIDKAKEWFPILAEFLRIERICRSVGLSERHTDELLQGKVLVVTGKLFSDEYKRSFTVEKVRLKVGREERDGKTVLDLLVDRVPIAAWFKEKWEKVSINRFRRNEMTIQKERGVRLLEHHHHHH | not soluble
MGYRNTGSPPPPQIGGLYGDRNPNPYGTVNLGGGSPYPGGLEEYNIRPAAPFSGLVGGSRSGYYGSTVGMRRGAVVPPMSSRKTKIPQTEYPPDYASNDLMNSFNGATNSAIPSLRELATYASRYGPAYLRERFGSHDSQLERMLYGGSGPQIPSRGGGIPIDYNMNIASNHWNRGIGSPMGIMSRDVDSYQHDDAAKANKKTTTGSPSTTSTRKPRKARKPTKKTVAAAPSSSSNTSTTAKPAKTVKTSEKSA | not soluble
MHAIILTMRVGIVGFGNMGQAFALCFSKKLGKENIIVTDKVQEKRNLATEMGIAFASDVKFLADNSDVVLVAVKPKDSQEVLQKLKDYKGIILSIMAGVSIEKMEKILGKDKKIVRVMPNVNVAVGSGVMAITDNGNLSEEERSKVEELLLSCGTLYRIEERLFDAFTALAGSGPAFVFSFIDALALAGVHQGFSYEQALRIALDTVMGSAKLLKEFQVNPNELIAKVTSPGGTTIEGIKYLEEKGFKGTVMECINRTSQKAKKLLEHHHHHH | not soluble
MHHHHHHGKPIPNPLLGLDSTENLYFQGIDPFTDVAAPSPAAAAEPGPAARPRSTRGQVRLPGGEFAMGDAFGEGYPADGETPVHTVRLRPFHIDETAVTNARFAAFVKATGHVTDAERFGSSAVFHLVVAAPDADVLGSAAGAPWWINVRGAHWRRPEGARSDITGRPNHPVVHVSWNDATAYARWAGKRLPTEAEWEYAARGGLAGRRYAWGDELTPGGRWRCNIWQGRFPHVNTAEDGHLSTAPVKSYRPNGHGLWNTAGNVWEWCSDWFSPTYYAESPTVDPHGPGTGAARVLRGGSYLCHDSYCNRYRVAARSSNTPDSSSGNLGFRCANDADLTSGSAAE | soluble
MHHHHHHSSGMNWTVDIPIDQLPSLPPLPTDLRTRLDAALAKPAAQQPTWPADQALAMRTVLESVPPVTVPSEIVRLQEQLAQVAKGEAFLLQGGDCAETFMDNTEPHIRGNVRALLQMAVVLTYGASMPVVKVARIAGQYAKPRSADIDALGLRSYRGDMINGFAPDAAAREHDPSRLVRAYANASAAMNLVRALTSSGLASLHLVHDWNREFVRTSPAGARYEALATEIDRGLRFMSACGVADRNLQTAEIYASHEALVLDYERAMLRLSDGDDGEPQLFDLSAHTVWIGERTRQIDGAHIAFAQVIANPVGVKLGPNMTPELAVEYVERLDPHNKPGRLTLVSRMGNHKVRDLLPPIVEKVQATGHQVIWQCDPMHGNTHESSTGFKTRHFDRIVDEVQGFFEVHRALGTHPGGIHVEITGENVTECLGGAQDISETDLAGRYETACDPRLNTQQSLELAFLVAEMLRD | soluble
MHHHHHHSSGRENLYFQGDLQATPGMFITSKKGHLSEMYQRVKKLGSGAYGEVLLCRDKVTHVERAIKIIRKTSVSTSSNSKLLEEVAVLKLLDHPNIMKLYDFFEDKRNYYLVMECYKGGELFDEIIHRMKFNEVDAAVIIKQVLSGVTYLHKHNIVHRDLKPENLLLESKEKDALIKIVDFGLSAVFENQKKMKERLGTAYYIAPEVLRKKYDEKCDVWSIGVILFILLAGYPPFGGQTDQEILRKVEKGKYTFDSPEWKNVSEGAKDLIKQMLQFDSQRRISAQQALEHPWIKEMCSKKESGIELPSLANAIENMRKFQNSQKLAQAALLYMASKLTSQEETKELTDIFRHIDKNGDGQLDRQELIDGYSKLSGEEVAVFDLPQIESEVDAILGAADFDRNGYIDYSEFVTVAMDRKSLLSKDKLESAFQKFDQDGNGKISVDELASVFGLDHLESKTWKEMISGIDSNNDGDVDFEEFCKMIQKLCSNNE | soluble
MHHHHHHSSGRENLYFQGESTRRLILVGRTGAGKSATGNSILGQRRFFSRLGATSVTRACTTGSRRWDKCHVEVVDTPDIFSSQVSKTDPGCEERGHCYLLSAPGPHALLLVTQLGRFTAQDQQAVRQVRDMFGEDVLKWMVIVFTRKEDLAGGSLHDYVSNTENRALRELVAECGGRVCAFDNRATGREQEAQVEQLLGMVEGLVLEHKGAHYSNEVYELAQVLRWAGPEERLRRVAERVAARVQR | soluble
MHHHHHHSSGRENLYFQGTYNISVVGLSGTEKEKGQCGIGKSCLCNRFVRPSADEFHLDHTSVLSTSDFGGRVVNNDHFLYWGEVSRSLEDCVECKMHIVEQTEFIDDQTFQPHRSTALQPYIKRAAATKLASAEKLMYFCTDQLGLEQDFEQKQMPDGKLLVDGFLLGIDVSRGMNRNFDDQLKFVSNLYNQLAKTKKPIVVVLTKCDEGVERYIRDAHTFALSKKNLQVVETSARSNVNVDLAFSTLVQLIDK | soluble
MHHHHHHSSGVDLGTENLYFQSMHGWGYGQDDGPSHWHKLYPIAQGDRQSPINIISSQAVYSPSLQPLELSYEACMSLSITNNGHSVQVDFNDSDDRTVVTGGPLEGPYRLKQFHFHWGKKHDVGSEHTVDGKSFPSELHLVHWNAKKYSTFGEAASAPDGLAVVGVFLETGDEHPSMNRLTDALYMVRFKGTKAQFSCFNPKCLLPASRHYWTYPGSLTTPPLSESVTWIVLREPICISERQMGKFRSLLFTSEDDERIHMVNNFRPPQPLKGRVVKASF | soluble
MHHHHHHSSGVDLGTENLYFQSMNLPEHWTDMNHQLFCMVQLEPGQSEYNTIKDKFTRTCSSYAIEKIERIQNAFLWQSYQVKKRQMDIKNDHKNNERLLFHGTDADSVPYVNQHGFNRSCAGKNAVSYGKGTYFAVDASYSAKDTYSKPDSNGRKHMYVVRVLTGVFTKGRAGLVTPPPKNPHNPTDLFDSVTNNTRSPKLFVVFFDNQAYPEYLITFTA | soluble
MHHISLTPFGRQPVTAGILASQRLAEARSPLPEIDKWALFADLRTARARFGVSDRDLAVLYALLSFLPGRVLTDAAPLVVFPSNATLSDRAHGMAESTLRRHLAALVEAGLVARRDSANGKRYAHRNRAGELVTAYGFDLRPLLVRAAEIAETAAALEAEAEAMARARTALVLKLRDATKLAAYADPEGRAAGIEPRLMPIRRALRRRLTLADLAEMARTLDLVLGDIRRTLALRAAEMDGTVGRIERHHTESKTESSDLEGGHACGKTSGEAEKDCRNIGGESPDEKANRPSPNRAEPDEARPEELASLEINDNQRPAPTLPLGLVLKACPDLEPYAPEIRNWRDLTAAASRLRGMMGITPSAWEEAKAEMGAETASVALAAILQRFASIRNPGGYLRALTRRASEGAFSPTPMIMALLAETREA | not soluble
MHIDNEDALFDWLSDELSPITDADPNALAKYVLALVKKPDKGHDELKAFTNEQLNVFLTDHTAPFVDKVFEALTSKSYMPASTAPTSASATAPDLKKEKAPAEKPSKPTAPPGVQKSSSSPSASKAESRPLRKRISPPPSENREKEKQSRDKERRRSRSPRDRRGRATTSRSGRTSSSDRDRHSKRRSRSRSRSSSGSRTPPYKSRSSRRRCKDFEERGYCIRGDQCPYYHGRDPVVVDENALGSMVPLPATAPNFSLPPPGYNPLNPPPPGVVVAAGEYNPEAPALNNYSIPPPPIPGQWQQPHVAAQYVPQSVSSYSQPPPAAAQGVVTQPGSFRGAPRGRGNIRGRGGFARGGFTGAINRDNCTLQVAKIPPEMNTIAKLNEHFATFGTVDNIQVRYNGEIDSALVTYASKFDAGKAYKSPTPVLNNRFIKVFWHNPGGEGSENATGKPSSPTSPPKPVEKPKIATVQESKFVSVAAQNYRKQIQDAKERLTKEKSILSTLVQAQNQHNIILDKWMVKQKELLIKARTSTDETDKKNATKLVKHLHKKIKACKEEVDGILLKISEKSMVVDEIAAQIEELKNPQKSDDSTRKRKAGSDGDEPQSKMSSVVIVRGVTDELVTDLMAHMEKFGEVFDHSVKADDDGLITAVFPFRKTGDALKAMADGKVLNGVDLEMELKTERIEEIPSTDTNMSADQLLAAIPSNLESDEEDDLLND | not soluble
